Patent US20030068416A1, “Method of lyophylization to reduce solvent content and enhance product recovery” (priority 2001, published 2003)

Key:
Format in all cases: physicochemical
[1] = Residual solvent content of trypsin after lyophilization (Example 1); settings: primary and secondary drying cycles, 62 hours
Procedure: (§1) When the solvent is water, the residual solvent content referenced herein refer to levels determined by the FDA approved, modified Karl Fischer method (Meyer and Boyd, Analytical Chem., 31:215-219, 1959; May, et al., J. Biol. Standardization, 10:249-259, 1982; Centers for Biologics Evaluation and Research, FDA, Docket No. 89D-0140, 83-93; 1990) or by near infrared spectroscopy.
1 ml aliquots of trypsin alone or with 100 mM sodium ascorbate were placed in 3 ml vials. Samples were prepared in triplicate and subjected to lyophilization (primary and secondary drying cycles; 62 hours).

[2] = Residual solvent content of trypsin frozen overnight at -70 C and lyophilized (Example 3); settings: frozen overnight at -70 C before lyophilization
Procedure: as §1
(§2) 1 ml aliquots of trypsin alone or with 100 mM sodium ascorbate were placed in 3 ml vials and frozen overnight at −70° C. Samples were prepared in quadruplicate and subjected to lyophilization. Samples were removed (using sample thief) at the end of primary drying (22 hours after start of the cycle), the cycle continued to completion (62 hours after start of cycle) at this time vials were sealed under vacuum and removed from the freeze dryer.

[3] = Residual solvent content of trypsin after lyophilization, sampled after primary drying and at end of cycle (Example 2)
Procedure: as §1
as §2, with “vials.” for “vials and frozen overnight at −70° C.”, “triplicate” for “quadruplicate”

trypsin
residual solvent content ([1]; absence of sodium ascorbate): about 1.8 % water
residual solvent content ([1]; presence of 100 mM sodium ascorbate): about 0.7 % water
residual solvent content ([2]; absence of ascorbate): about 3.9 % water
residual solvent content ([2]; presence of ascorbate (100 mM sodium ascorbate)): 0.7 % water
residual solvent content ([3]; absence of sodium ascorbate, following a primary drying cycle alone (22 hours)): about 5.8 % water
residual solvent content ([3]; absence of sodium ascorbate, following primary and secondary drying cycle (62 hours)): about 5.4 % water
residual solvent content ([3]; presence of 100 mM sodium ascorbate, following a primary drying cycle alone (22 hours)): about 2.8 % water
residual solvent content ([3]; presence of 100 mM sodium ascorbate, following primary and secondary drying cycle (62 hours)): about 1.1 % water
